# Substitutions are numbered along the chain they refer to. Numbers in names are those of the source.
# B1: 16H7 variant, light chain G24P (antibody, human IgG4 S228P, lambda, V domains shown)
# VH: not shown
# VL: SYVLTQPPSVSVAPGQTARITCGPNNIGSESVHWYQQKPGQAPVLVVYDDSDRPSGIPERFSGSNSGNTATLTISRVEAGDEADYYCQVWDGNSDHVVFGGGTKLTVLG
# B2: 16H7 light chain variant H33W (antibody, IgG4, V domains shown)
# VH: not shown
# VL: B1 VL with P24G, H33W
# B3: 16H7 light chain variant D49P (antibody, IgG4, V domains shown)
# VH: not shown
# VL: B1 VL with P24G, D49P
# B4: 16H7 light chain variant V97S (antibody, IgG4, V domains shown)
# VH: not shown
# VL: B1 VL with P24G, V97S
# B5: 16H7 light chain variant D50P (antibody, IgG4, V domains shown)
# VH: not shown
# VL: B1 VL with P24G, D50P
# B6: 16H7 light chain variant D49F (antibody, IgG4, V domains shown)
# VH: not shown
# VL: B1 VL with P24G, D49F
# B7: 16H7 light chain variant H96P (antibody, IgG4, V domains shown)
# VH: not shown
# VL: B1 VL with P24G, H96P
# B8: 16H7 light chain variant V97A (antibody, IgG4, V domains shown)
# VH: not shown
# VL: B1 VL with P24G, V97A
# B9: 16H7 light chain variant D49E (antibody, IgG4, V domains shown)
# VH: not shown
# VL: B1 VL with P24G, D49E
# B10: 16H7 light chain variant D95V (antibody, IgG4, V domains shown)
# VH: not shown
# VL: B1 VL with P24G, D95V
# B11: 16H7 light chain variant D49C (antibody, IgG4, V domains shown)
# VH: not shown
# VL: B1 VL with P24G, D49C
# B12: 16H7 light chain variant D49K (antibody, IgG4, V domains shown)
# VH: not shown
# VL: B1 VL with P24G, D49K
# B13: 16H7 light chain variant D49T (antibody, IgG4, V domains shown)
# VH: not shown
# VL: B1 VL with P24G, D49T
# B14: 16H7 light chain variant V97E (antibody, IgG4, V domains shown)
# VH: not shown
# VL: B1 VL with P24G, V97E
# B15: 16H7 light chain variant V97H (antibody, IgG4, V domains shown)
# VH: not shown
# VL: B1 VL with P24G, V97H
# B16: 16H7 light chain variant V97R (antibody, IgG4, V domains shown)
# VH: not shown
# VL: B1 VL with P24G, V97R
# B17: 16H7 light chain variant D49H (antibody, IgG4, V domains shown)
# VH: not shown
# VL: B1 VL with P24G, D49H
# B18: 16H7 light chain variant V97P (antibody, IgG4, V domains shown)
# VH: not shown
# VL: B1 VL with P24G, V97P
# B19: 16H7 light chain variant H33R (antibody, IgG4, V domains shown)
# VH: not shown
# VL: B1 VL with P24G, H33R
# B20: 16H7 light chain variant D49V (antibody, IgG4, V domains shown)
# VH: not shown
# VL: B1 VL with P24G, D49V
# B21: 16H7 light chain variant D49I (antibody, IgG4, V domains shown)
# VH: not shown
# VL: B1 VL with P24G, D49I
# B22: 16H7 light chain variant D49L (antibody, IgG4, V domains shown)
# VH: not shown
# VL: B1 VL with P24G, D49L
# B23: 16H7 light chain variant D49M (antibody, IgG4, V domains shown)
# VH: not shown
# VL: B1 VL with P24G, D49M
# B24: 16H7 light chain variant D49N (antibody, IgG4, V domains shown)
# VH: not shown
# VL: B1 VL with P24G, D49N
# B25: 16H7 light chain variant H33K (antibody, IgG4, V domains shown)
# VH: not shown
# VL: B1 VL with P24G, H33K
# B26: 16H7 light chain variant D49Y (antibody, IgG4, V domains shown)
# VH: not shown
# VL: B1 VL with P24G, D49Y
# B27: 16H7 light chain variant D95N (antibody, IgG4, V domains shown)
# VH: not shown
# VL: B1 VL with P24G, D95N
# B28: 16H7 light chain variant D95F (antibody, IgG4, V domains shown)
# VH: not shown
# VL: B1 VL with P24G, D95F
# B29: 16H7 light chain variant V97G (antibody, IgG4, V domains shown)
# VH: not shown
# VL: B1 VL with P24G, V97G
# B30: 16H7 light chain variant V97K (antibody, IgG4, V domains shown)
# VH: not shown
# VL: B1 VL with P24G, V97K
# B31: 16H7 light chain variant D95R (antibody, IgG4, V domains shown)
# VH: not shown
# VL: B1 VL with P24G, D95R
# B32: 16H7 light chain variant D49R (antibody, IgG4, V domains shown)
# VH: not shown
# VL: B1 VL with P24G, D49R
# B33: 16H7 light chain variant V97D (antibody, IgG4, V domains shown)
# VH: not shown
# VL: B1 VL with P24G, V97D
# B34: 16H7 light chain variant D95E (antibody, IgG4, V domains shown)
# VH: not shown
# VL: B1 VL with P24G, D95E
# B35: 16H7 variant, light chain Q88S (antibody, human IgG4 S228P, lambda, V domains shown)
# VH: not shown
# VL: B1 VL with P24G, Q88S
# B36: 16H7 variant, light chain S55A (antibody, human IgG4 S228P, lambda, V domains shown)
# VH: not shown
# VL: B1 VL with P24G, S55A
# B37: 16H7 variant, light chain R53N (antibody, human IgG4 S228P, lambda, V domains shown)
# VH: not shown
# VL: B1 VL with P24G, R53N
# B38: 16H7 variant with light chain substitution S55A (antibody, V domains shown)
# VH: not shown
# VL: B1 VL with P24G, S55A
# B39: 16H7 variant, light chain N25F (antibody, human IgG4 S228P, lambda, V domains shown)
# VH: not shown
# VL: B1 VL with P24G, N25F
# B40: 16H7 variant, light chain R53V (antibody, human IgG4 S228P, lambda, V domains shown)
# VH: not shown
# VL: B1 VL with P24G, R53V
# B41: 16H7 variant with light chain substitution P54A (antibody, V domains shown)
# VH: not shown
# VL: B1 VL with P24G, P54A
# B42: 16H7 variant with light chain substitution S51F (antibody, V domains shown)
# VH: not shown
# VL: B1 VL with P24G, S51F
# B43: 16H7 variant with light chain substitution R53N (antibody, V domains shown)
# VH: not shown
# VL: B1 VL with P24G, R53N
# B44: 16H7 light chain variant G28Q (antibody, human IgG4 S228P, lambda, V domains shown)
# VH: not shown
# VL: B1 VL with P24G, G28Q
# B45: 16H7 light chain variant G28V (antibody, human IgG4 S228P, lambda, V domains shown)
# VH: not shown
# VL: B1 VL with P24G, G28V
# B46: 16H7 variant with light chain substitution R53V (antibody, V domains shown)
# VH: not shown
# VL: B1 VL with P24G, R53V
# B47: 16H7 variant, light chain P54A (antibody, human IgG4 S228P, lambda, V domains shown)
# VH: not shown
# VL: B1 VL with P24G, P54A
# B48: 16H7 light chain variant S29Y (antibody, human IgG4 S228P, lambda, V domains shown)
# VH: not shown
# VL: B1 VL with P24G, S29Y
# Columns and labels:
# Test in all cases: cell-based or functional assay
# [1] = target: human FGFR1c/KLB cell surface receptor complex on iLite FGF21 reporter cells (human, UniProt P11362 22-822; Q86Z14 1-1044)
# [2] = target: cell surface receptor composed of FGFR1c and co-receptor beta-Klotho (KLB) (human, UniProt P11362 22-822; Q86Z14 1-1044)
# Target sequence in this assay (P11362 22-822, chain 1 of 2): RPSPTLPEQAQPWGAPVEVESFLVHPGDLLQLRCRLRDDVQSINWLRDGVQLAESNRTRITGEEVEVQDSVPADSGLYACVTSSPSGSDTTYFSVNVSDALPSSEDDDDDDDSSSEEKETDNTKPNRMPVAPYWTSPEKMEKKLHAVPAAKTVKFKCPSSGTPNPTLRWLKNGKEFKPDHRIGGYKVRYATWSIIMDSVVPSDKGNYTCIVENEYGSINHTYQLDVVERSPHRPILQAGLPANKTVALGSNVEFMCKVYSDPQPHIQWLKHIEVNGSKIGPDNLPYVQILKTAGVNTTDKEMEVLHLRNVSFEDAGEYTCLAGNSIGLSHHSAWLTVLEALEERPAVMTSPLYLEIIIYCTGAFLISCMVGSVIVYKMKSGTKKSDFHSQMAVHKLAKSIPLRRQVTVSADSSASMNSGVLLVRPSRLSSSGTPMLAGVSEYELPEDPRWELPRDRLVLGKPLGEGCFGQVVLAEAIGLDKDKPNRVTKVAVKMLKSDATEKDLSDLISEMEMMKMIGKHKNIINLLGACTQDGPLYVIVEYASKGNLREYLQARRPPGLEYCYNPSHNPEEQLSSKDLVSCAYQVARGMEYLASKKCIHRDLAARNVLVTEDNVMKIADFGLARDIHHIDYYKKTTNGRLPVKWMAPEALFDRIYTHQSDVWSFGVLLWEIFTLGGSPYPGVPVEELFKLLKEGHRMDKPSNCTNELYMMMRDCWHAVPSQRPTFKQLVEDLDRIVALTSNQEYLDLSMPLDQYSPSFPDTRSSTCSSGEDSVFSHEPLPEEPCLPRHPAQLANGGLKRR
# Target sequence in this assay (Q86Z14 whole entry, chain 2 of 2): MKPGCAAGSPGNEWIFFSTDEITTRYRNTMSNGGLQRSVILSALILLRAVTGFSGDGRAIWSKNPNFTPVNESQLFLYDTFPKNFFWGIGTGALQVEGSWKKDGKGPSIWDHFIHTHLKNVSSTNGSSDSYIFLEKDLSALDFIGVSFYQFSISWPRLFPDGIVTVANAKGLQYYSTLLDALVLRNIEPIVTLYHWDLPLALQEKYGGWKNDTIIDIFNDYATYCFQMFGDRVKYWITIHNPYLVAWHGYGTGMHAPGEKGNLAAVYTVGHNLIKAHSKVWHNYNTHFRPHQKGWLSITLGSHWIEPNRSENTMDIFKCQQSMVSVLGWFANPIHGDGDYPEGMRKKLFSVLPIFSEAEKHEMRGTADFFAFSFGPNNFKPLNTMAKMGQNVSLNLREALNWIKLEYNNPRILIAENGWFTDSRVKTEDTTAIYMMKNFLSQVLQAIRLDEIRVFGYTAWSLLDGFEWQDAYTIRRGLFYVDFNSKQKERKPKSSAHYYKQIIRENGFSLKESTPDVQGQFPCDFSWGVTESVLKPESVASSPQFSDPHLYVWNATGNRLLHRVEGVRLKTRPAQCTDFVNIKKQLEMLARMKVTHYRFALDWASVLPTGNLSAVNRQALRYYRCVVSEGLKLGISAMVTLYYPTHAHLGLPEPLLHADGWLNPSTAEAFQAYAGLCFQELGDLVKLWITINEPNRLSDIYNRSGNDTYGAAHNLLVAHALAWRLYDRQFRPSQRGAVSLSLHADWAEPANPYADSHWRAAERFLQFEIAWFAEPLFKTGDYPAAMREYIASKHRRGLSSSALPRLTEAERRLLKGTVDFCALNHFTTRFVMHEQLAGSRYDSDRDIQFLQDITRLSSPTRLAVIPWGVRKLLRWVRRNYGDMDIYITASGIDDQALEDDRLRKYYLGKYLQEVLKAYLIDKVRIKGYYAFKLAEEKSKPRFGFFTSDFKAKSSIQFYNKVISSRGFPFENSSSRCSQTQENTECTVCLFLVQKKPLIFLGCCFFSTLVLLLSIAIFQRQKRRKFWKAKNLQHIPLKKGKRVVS
# [3] = target: human FGFR1c/KLB receptor complex on iLite FGF21 Assay Ready Cells (human, UniProt P11362 22-822; Q86Z14 1-1044)
# [4] = target: cell surface receptor composed of FGFR1c and co-receptor beta-Klotho (KLB) (human, UniProt P11362 22-822; Q86Z14 1-1044); remark: listed apart in the source
# Target sequence in this assay (P11362 22-822, chain 1 of 2): as the sequence (P11362 22-822, chain 1 of 2) above
# Target sequence in this assay (Q86Z14 whole entry, chain 2 of 2): as the sequence (Q86Z14 whole entry, chain 2 of 2) above
# Throughout, for Mean E max (%): reference of the scale not given here.
# Throughout, for Mean E max, Luciferase reporter gene assay: reference of the scale not given here.
# Sequence of human FGFR1c/KLB receptor complex on iLite FGF21 Assay Ready Cells (P11362 22-822, chain 1 of 2): as the sequence (P11362 22-822, chain 1 of 2) above
# Sequence of human FGFR1c/KLB receptor complex on iLite FGF21 Assay Ready Cells (Q86Z14 whole entry, chain 2 of 2): as the sequence (Q86Z14 whole entry, chain 2 of 2) above
# Sequence of human FGFR1c/KLB cell surface receptor complex on iLite FGF21 reporter cells (P11362 22-822, chain 1 of 2): as the sequence (P11362 22-822, chain 1 of 2) above
# Sequence of human FGFR1c/KLB cell surface receptor complex on iLite FGF21 reporter cells (Q86Z14 whole entry, chain 2 of 2): as the sequence (Q86Z14 whole entry, chain 2 of 2) above
Binder,"Mean E max, Luciferase reporter gene assay [2]","Mean EC50, Luciferase reporter gene assay [2]",other results
B1,–,–,Mean E max (%) [1]: 110%
B2,80%,0.666 nM,–
B3,96%,0.195 nM,–
B4,84%,0.308 nM,–
B5,77%,0.124 nM,–
B6,94%,0.256 nM,–
B7,50%,–,–
B8,68%,2.09 nM,–
B9,87%,0.193 nM,–
B10,3%,–,–
B11,85%,0.789 nM,–
B12,83%,1.34 nM,–
B13,89%,0.107 nM,–
B14,92%,0.15 nM,–
B15,71%,1.47 nM,–
B16,-1%,–,–
B17,90%,0.183 nM,–
B18,65%,2.55 nM,–
B19,68%,2.19 nM,–
B20,97%,0.206 nM,–
B21,83%,0.149 nM,–
B22,92%,0.529 nM,–
B23,85%,0.224 nM,–
B24,108%,0.19 nM,–

Binder,"Mean E max, Luciferase reporter gene assay [2]","Mean EC50, Luciferase reporter gene assay [2]",other results
B25,96%,0.174 nM,–
B26,99%,0.151 nM,–
B27,78%,1.03 nM,–
B28,-1%,–,–
B29,75%,0.51 nM,–
B30,96%,0.444 nM,–
B31,4%,–,–
B32,72%,1.86 nM,–
B33,67%,0.375 nM,–
B34,44%,8.04 nM,–
B35,–,–,Mean E max (%) [1]: 104%
B36,–,–,Mean E max (%) [1]: 110%
B37,–,–,Mean E max (%) [1]: 100%
B38,–,–,Mean E max (%) [3]: 110%
B39,–,–,Mean E max (%) [1]: 104%
B40,–,–,Mean E max (%) [1]: 101%
B41,–,–,Mean E max (%) [3]: 105%
B42,–,–,Mean E max (%) [3]: 100%; Mean EC50 [3]: 0.12 nM
B43,–,–,Mean E max (%) [3]: 100%
B44,–,–,"Mean E max, Luciferase reporter gene assay [4]: 104%"
B45,–,–,"Mean E max, Luciferase reporter gene assay [4]: 97%"
B46,–,–,Mean E max (%) [3]: 101%
B47,–,–,Mean E max (%) [1]: 105%
B48,–,–,"Mean E max, Luciferase reporter gene assay [4]: 102%"
